B1: human recombinant tTG: commercially available recombinant human tissue transglutaminase used as competitor (protein, UniProt P21980 2-687, looked up)
Protein-glutamine …: AEELVLERCDLELETNGRDHHTADLCREKLVVRRGQPFWLTLHFEGRNYEASVDSLTFSVVTGPAPSQEAGTKARFPLRDAVEEGDWTATVVDQQDCTLSLQLTTPANAPIGLYRLSLEASTGYQGSSFVLGHFILLFNAWCPADAVYLDSEEERQEYVLTQQGFIYQGSAKFIKNIPWNFGQFEDGILDICLILLDVNPKFLKNAGRDCSRRSSPVYVGRVVSGMVNCNDDQGVLLGRWDNNYGDGVSPMSWIGSVDILRRWKNHGCQRVKYGQCWVFAAVACTVLRCLGIPTRVVTNYNSAHDQNSNLLIEYFRNEFGEIQGDKSEMIWNFHCWVESWMTRPDLQPGYEGWQALDPTPQEKSEGTYCCGPVPVRAIKEGDLSTKYDAPFVFAEVNADVVDWIQQDDGSVHKSINRSLIVGLKISTKSVGRDEREDITHTYKYPEGSSEEREAFTRANHLNKLAEKEETGMAMRIRVGQSMNMGSDFDVFAHITNNTAEEYVCRLLLCARTVSYNGILGPECGTKYLLNLNLEPFSEKSVPLCILYEKYRDCLTESNLIKVRALLVEPVINSYLLAERDLYLENPEIKIRILGEPKQKRKLVAEVSLQNPLPVALEGCTFTVEGAGLTEEQKTVEIPDPVEAGEEVKVRMDLLPLHMGLHKLVVNFESDKLKAVKGFRNVIIGPA

Columns and labels:
solid-phase desmoglein 1 = target: T1, solid-phase desmoglein 1 (Homo sapiens, UniProt Q02413); assay: Competitive ELISA with desmoglein 1-coated plates; assay type: binding; conditions: liquid-phase competitor, 0.6-20 μg/ml
T1 construct: purchased MBL
T1 sequence (Q02413 50-1049): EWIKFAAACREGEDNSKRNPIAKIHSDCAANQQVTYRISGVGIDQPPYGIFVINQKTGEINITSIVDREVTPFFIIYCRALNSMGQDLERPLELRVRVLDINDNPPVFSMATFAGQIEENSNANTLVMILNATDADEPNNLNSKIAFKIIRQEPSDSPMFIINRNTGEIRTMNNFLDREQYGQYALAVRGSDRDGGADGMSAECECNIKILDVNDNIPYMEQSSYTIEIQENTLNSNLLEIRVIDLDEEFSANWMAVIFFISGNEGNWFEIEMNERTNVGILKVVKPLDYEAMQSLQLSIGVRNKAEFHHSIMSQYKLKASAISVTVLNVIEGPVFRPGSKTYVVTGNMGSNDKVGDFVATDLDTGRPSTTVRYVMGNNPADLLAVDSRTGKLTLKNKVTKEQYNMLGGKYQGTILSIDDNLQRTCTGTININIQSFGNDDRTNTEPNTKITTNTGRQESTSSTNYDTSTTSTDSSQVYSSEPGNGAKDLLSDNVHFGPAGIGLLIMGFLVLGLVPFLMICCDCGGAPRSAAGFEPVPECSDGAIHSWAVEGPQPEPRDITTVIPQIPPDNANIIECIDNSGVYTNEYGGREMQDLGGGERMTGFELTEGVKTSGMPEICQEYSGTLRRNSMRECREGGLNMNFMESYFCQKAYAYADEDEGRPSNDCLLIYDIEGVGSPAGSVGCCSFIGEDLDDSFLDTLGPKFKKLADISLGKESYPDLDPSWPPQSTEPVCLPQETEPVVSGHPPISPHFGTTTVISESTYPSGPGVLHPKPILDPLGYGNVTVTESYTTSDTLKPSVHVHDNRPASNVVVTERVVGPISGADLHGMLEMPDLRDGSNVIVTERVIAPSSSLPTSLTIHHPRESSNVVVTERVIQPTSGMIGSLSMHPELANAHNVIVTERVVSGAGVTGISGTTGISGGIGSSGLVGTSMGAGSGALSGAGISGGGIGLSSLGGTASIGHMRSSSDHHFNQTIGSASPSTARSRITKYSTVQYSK
Method: Desmoglein 1-coated plates were purchased from MBL (Woburn, Mass., United States). Serum samples in diluting buffer (serum dilution ranged from 1:400 to 1:800 corresponding to 50% maximal binding to solid-phase desmoglein 1) were pre-incubated with increasing concentrations of competitors (synthetic peptides and recombinant human tTG: 20, 10, 5, 2.5, 1.25, 0.6 μg/ml) for 1 h at 37° C. The mixture was then transferred to the desmoglein-coated plate. In this particular assay, the authors used the desmoglein 1 peptide as liquid-phase competitor, since the only liquid-phase recombinant desmoglein 1 available is an Fc chimera.

solid-phase tTG = target: T2, solid-phase tTG (Homo sapiens, UniProt P21980); assay: Competitive ELISA using tTG-coated plates; assay type: binding; conditions: pre-incubation with competitor, 0.6-20 μg/ml
T2 construct: purchased Eurospital
T2 sequence (P21980 1-687): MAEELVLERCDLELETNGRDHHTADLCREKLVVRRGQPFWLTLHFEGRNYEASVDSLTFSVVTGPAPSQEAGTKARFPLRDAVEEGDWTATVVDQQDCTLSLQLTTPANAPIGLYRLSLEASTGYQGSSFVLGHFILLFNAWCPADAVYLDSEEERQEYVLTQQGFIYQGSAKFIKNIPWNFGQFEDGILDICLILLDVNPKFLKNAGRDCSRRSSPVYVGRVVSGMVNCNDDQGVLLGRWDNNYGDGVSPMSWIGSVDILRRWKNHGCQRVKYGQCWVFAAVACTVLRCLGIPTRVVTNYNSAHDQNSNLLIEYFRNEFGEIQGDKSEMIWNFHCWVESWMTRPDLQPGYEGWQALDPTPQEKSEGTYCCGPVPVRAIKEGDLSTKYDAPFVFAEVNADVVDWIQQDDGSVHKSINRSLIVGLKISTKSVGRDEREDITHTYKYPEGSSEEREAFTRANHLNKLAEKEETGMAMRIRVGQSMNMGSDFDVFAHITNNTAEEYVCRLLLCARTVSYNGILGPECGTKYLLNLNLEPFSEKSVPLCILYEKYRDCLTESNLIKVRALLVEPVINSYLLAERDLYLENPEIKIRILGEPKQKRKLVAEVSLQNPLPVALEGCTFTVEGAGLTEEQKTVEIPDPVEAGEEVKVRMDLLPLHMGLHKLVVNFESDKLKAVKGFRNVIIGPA
Method: (§1) The direct and competitive ELISA for antibody binding to the synthetic peptides have already been described elsewhere. Briefly, the synthetic peptides were used at a concentration of 20 μg/ml in PBS to coat polystyrene plates (Nunc, Roskilde, Denmark). Plates were then blocked for 1 h with PBS 3% BSA. Serum samples were diluted in diluting buffer (PBS 1% BSA 0.05% Tween) and incubated on the plates for 3 h at room temperature. Plates were then washed twice with PBS 1% Tween and twice with PBS. Bound antibodies were detected by an alkaline phosphatase-conjugated anti-human IgA antiserum (1:1,000 in diluting buffer) (Sigma, St. Louis, Mo., United States) or with an alkaline phosphatase-conjugated anti-human IgG antiserum (1:2,000 in diluting buffer) (Sigma). In some experiments, an alkaline phosphatase-conjugated anti-rabbit IgG antiserum (1:2,000 in diluting buffer) (Sigma) was also used. The secondary reagents were incubated overnight at 4° C.; plates were then washed twice with PBS/Tween and twice with PBS. The alkaline phosphatase substrate (Sigma) diluted in bicarbonate buffer was then added to the wells and the plates read after 30 min or 1 h at a spectrophotometer set at 450 nm. For the competitive assay, the amount of antibody (or serum dilution) that gave 50% of the maximum binding to the antigen on the solid phase was pre-incubated for 1 h at 37° C. with different amounts of competitors (20, 10, 5, 2.5, 1.25, 0.6 μg/ml) or buffer (diluting buffer as the one used in the direct ELISA) and then transferred to the antigen-coated plates. The assay was then carried on as the direct binding assay. For the competitive ELISAs presented in this paper in particular, the following experimental conditions were used. (1) Competitive ELISA using tTG-coated plates. Plates coated with human recombinant tTG were purchased from Eurospital. Serum samples in diluting buffer (serum dilution ranged from 1:400 to 1:1,600 corresponding to 50% maximal binding to solid-phase tTG) were pre-incubated with increasing concentration of competitors (synthetic peptides or recombinant human tTG: 20, 10, 5, 2.5, 1.25, 0.6 μg/ml) for 1 h at 37° C. The mixture was then transferred to the tTG-coated plate. The remainder of the assay was performed as the direct binding assay. Results are expressed as: […]

solid-phase HSP60 = target: T3, solid-phase HSP60 (Homo sapiens, UniProt P10809); assay: Competitive ELISA on solid-phase HSP60; assay type: binding; conditions: pre-incubation with competitor
T3 construct: purchased Stressgen
T3 sequence (P10809 27-573): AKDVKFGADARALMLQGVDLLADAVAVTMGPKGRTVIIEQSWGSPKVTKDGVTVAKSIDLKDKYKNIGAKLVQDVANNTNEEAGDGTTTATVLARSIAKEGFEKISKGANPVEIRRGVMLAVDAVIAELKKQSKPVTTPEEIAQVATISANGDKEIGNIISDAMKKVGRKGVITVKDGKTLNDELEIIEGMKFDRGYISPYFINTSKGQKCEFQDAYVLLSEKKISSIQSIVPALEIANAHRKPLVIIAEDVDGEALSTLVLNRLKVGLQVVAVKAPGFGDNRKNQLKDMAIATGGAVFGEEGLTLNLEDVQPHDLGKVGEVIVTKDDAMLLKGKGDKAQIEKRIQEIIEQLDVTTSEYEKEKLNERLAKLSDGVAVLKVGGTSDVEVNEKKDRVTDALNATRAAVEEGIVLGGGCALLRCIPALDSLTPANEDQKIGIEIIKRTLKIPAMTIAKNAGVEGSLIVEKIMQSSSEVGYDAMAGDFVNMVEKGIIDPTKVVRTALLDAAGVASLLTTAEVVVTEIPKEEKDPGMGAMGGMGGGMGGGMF
Method: as §1, with “Serum samples in diluting buffer (serum dilution ranged from 1:400 to 1:1,600 corresponding to 50% maximal binding to solid-phase tTG) were pre-incubated with increasing concentration of competitors (synthetic peptides or recombinant human tTG: 20, 10, 5, 2.5, 1.25, 0.6 μg/ml) for 1 h at 37° C. The mixture was then transferred to the tTG-coated plate. The remainder of the assay was performed as the direct binding assay.” left out

solid-phase TLR4 peptide = target: T4, solid-phase TLR4 peptide (Homo sapiens, UniProt O00206); assay: Competitive ELISA on solid-phase TLR4 peptide; assay type: binding; conditions: liquid-phase competitor
T4 construct: made in house; host or cells: chemical solid-phase synthesis (FMOC)
Method: as §1

[1] = test system: T84 human intestinal epithelial cell line; assay: [3H] mannitol flux across T84 monolayers; assay type: cell-based; conditions: pre-incubation of antibodies with the substance; T84, 3 h
Method: T84 cells obtained from the American Type Culture Collection (Manassas, Va., United States) were grown in a 5% CO2 humidified incubator at 37° C. on 162-cm^2 flasks (Corning Costar, Acton, Mass., United States) with media containing a 1:1 mixture of Ham's F-12 nutrient mixture and DMEM supplemented with 6% heat-inactivated fetal bovine serum, 15 mM HEPES, 14.3 mM NaHCO3, and antibiotics (penicillin and streptomycin)-antimycotics (pH 7.4). Cells were passaged weekly on reaching confluence. For experiments, cells were plated onto collagen-coated permeable supports, where they were fed every 3 d and used from days 7-14 (within fifth passage).
Confluent T84 monolayers grown on 4.7 cm^2 transwell inserts were incubated in HEPES-phosphate-buffered Ringer solution (HPBR, containing 135 mM NaCl, 5 mM KCl, 3.33 mM NaHPO4, 1 mM CaCl2, 1 mM MgCl2, 10 mM glucose, and 5 mM HEPES [pH 7.4]) for 30 min, followed by treatment with basolaterally applied Igs (20 μg/ml) in the presence of [^3H] mannitol (5 μCi/ml) in the basolateral compartment. Apical solution was sampled every 30 min (to detect the presence of [^3H] mannitol) and exchanged with fresh HPBR buffer solution for a total of 4 h. The collected apical samples were placed in vials containing scintillation fluid and analyzed for the presence of [^3H] mannitol by scintillation counter.

Human monocytes = assay: Stimulation of monocytes, FACS analysis of activation markers; assay type: cell-based; conditions: monocytes incubated overnight, antibody preparations 20 μg/ml, LPS 1 μg/ml
Method: Human monocytes were isolated from normal donors and incubated overnight at a density of 1×10^6 cells/ml in RPMI 10% FCS in 24-well plates in the presence of the antibody preparations (20 μg/ml) or lipopolysaccharide (LPS) (1 μg/ml) (Sigma). The medium used and all the antibody preparations were treated with Detoxi-gel endotoxin-removing columns (Pierce). Presence of LPS contaminants in the antibody preparation and buffers as well as in the culture medium was assessed using the HEK-Blue LPS Detection Kit (Invivogen); all the antibody preparation and buffers used throughout the study were devoided of LPS contaminants. Monocytes were then used for fluorescence-activated cell sorting (FACS) analysis.
Cells were incubated with R-phycoerythrin directly conjugated anti-CD1, -CD83, and -CD86 antibodies for 30 min on ice. […] Samples were run on a FACScan flow cytometer (Becton Dickinson, Mountain View, Calif., United States). All the antibodies used were purchased from Immunotech (Marseille, France).

| Molecule | inhibition of binding of anti-celiac peptide antibodies to solid-phase desmoglein 1 (solid-phase desmoglein 1) | inhibition of antibody binding to solid-phase tTG by liquid-phase competitor (solid-phase tTG) | inhibition of antibody binding to solid-phase HSP60 by liquid-phase competitor (solid-phase HSP60) | inhibition of binding of anti-celiac peptide antibodies to solid-phase TLR4 peptide (solid-phase TLR4 peptide) | blocking of the effect of anti-celiac peptide antibodies on cell permeability [1] | Percentage of positive cells, CD83 (Human monocytes; medium alone 9.4%) [%] | Percentage of positive cells, CD40 (Human monocytes; medium alone 62.3%) [%] |
| --- | --- | --- | --- | --- | --- | --- | --- |
| LSSLGGTASIGH [desmoglein 1 peptide] | inhibited | – | – | – | – | – | – |
| RIRVGQSMNMGS [tTG peptide] | – | inhibited | inhibited | – | – | – | – |
| VIQVGGSNVLDI [VP-7 peptide] | inhibited | inhibited | inhibited | Inhibition | – | – | – |
| VLKMAGNSFQEN [TLR4 peptide] | inhibited | – | – | Inhibition | – | – | – |
| VTLPKDSDVELP [irrelevant control peptide] | – | not | – | not | not | – | – |
| VVKVGGSSSLGW [celiac peptide] | inhibited | inhibited | inhibited | Inhibition | blocked | – | – |
| lipopolysaccharide [LPS] | – | – | – | – | – | 45 | 89 |
| B1 | inhibited | – | – | – | blocked | – | – |

Reference: US20100196919A1, “PEPTIDES, ANTIBODIES AND FRAGMENTS THEREOF FOR THE TREATMENT AND DIAGNOSTIC OF CELIAC DISEASE” (UNIVERSITÀ DEGLI STUDI DI VERONA, priority 2007, published 2010)
